The results in this text go back to US6670189B2, “Fumonisin detoxification compositions and methods” (priority 1994, dated 2003).

Data set [1] can be described thus: Hydrolysis of fumonisin B1 by commercial esterases and hydrolases. Further details: key: − = no hydrolysis; ± = trace amount of hydrolysis; + = incomplete hydrolysis; ++ = incomplete hydrolysis; +++ = complete hydrolysis. Format: biochemical. To be noted: assay pH 5.2; overnight at 37° C. with 1 mg/ml fumonisin. As for the experimental part:
(§1) Analytical thin-layer chromatography was carried out on 100% silanized C18 silica plates (Sigma #T-7020; 10×10 cm; 0.1 mm thick) by a modification of the published method of Rottinghaus (Rottinghaus, G. E., Coatney, C. E., and Minor, H. C., A rapid, sensitive thin layer chromatography procedure for the detection of fumonisin b-1 and b-2, J Vet Diagn Invest, 4, 326 (1992), and herein incorporated by reference).
(§2) Sample lanes were pre-wet with methanol to facilitate sample application. After application of from 0.1 to 2 μl of aqueous sample, the plates were air-dried and developed in MeOH:4% KCl (3:2) or MeOH:0.2 M KOH (3:2) and then sprayed successively with 0.1 M sodium borate (pH 9.5) and fluorescamine (0.4 mg/ml in acetonitrile). Plates were air-dried and viewed under long wave UV.
The fumonisin esterase isolated from E. spinifera and R. atrovirens was compared with other known esterases from various sources as supplied by commercial vendors.

Data set [2] deals with FB1 Hydrolase activity. The data set can be described thus: Effect of various treatments on modification of FB1 by E. spinifera esterase (culture filtrates). The conditions noted are these: treatment 0.01 mg/ml, 16 hr, 37° C., pH 5.2; then incubated with FB1 overnight at 37° C. It is filed as biochemical, Exophiala spinifera. On the set-up: key: − = no hydrolysis; ± = trace amount of hydrolysis; + = incomplete hydrolysis; ++ = incomplete hydrolysis; +++ = complete hydrolysis. How it is done:
as §1, §2
The esterase isolated from E. spinifera was then subjected to other treatments, including proteases, to determine whether and how the enzyme would function in various environments.

B1: Fumonisin esterase (protein)
chain: APTVKIDAGMVVGTTTTVPGTTATVSEFLGVPFAASPTRFAPPTRPVPWSTPLQATAYGPACPQQFNYPEELREITMAWFNTPPPSAGESEDCLNLNIYVPGTENTNKAVMVWIYGGALEYGWNSFHLYDGASFAANQDVIVVTINYRTNILGFPAAPQLPITQRNLGFLDQRFALDWVQRNIAAFGGDPRKVTIFGQSAGGRSVDVLLTSMPHNPPFRAAIMESGVANYNFPKGDLSEPWNTTVQALNCTTSIDILSCMRRVDLATLMNTIEQLGLGFEYTLDNVTVVYRSETARTTGDIARVPVLVGTVANDGLLFVLGENDTQAYLEEAIPNQPDLYQTLLGAYPIGSPGIGSPQDQIAAIETEVRFQCPSAIVAQDSRNRGIPSWRYYYNATFENLELFPGSEVYHSSEVGMVFGTYPVASATALEAQTSKYMQGAWAAFAKNPMNGPGWKQVPNVAALGSPGKAIQVDVSPATIDQRCALYTHYYTELGTIAPRTF
On to B1, for which, in data set [1], the FB1 hydrolysis entry is listed as “+++”.

B2: Protease K: protease used to treat the culture filtrate (protein, UniProt P06873 106-384, looked up)
Proteinase K: AAQTNAPWGLARISSTSPGTSTYYYDESAGQGSCVYVIDTGIEASHPEFEGRAQMVKTYYYSSRDGNGHGTHCAGTVGSRTYGVAKKTQLFGVKVLDDNGSGQYSTIIAGMDFVASDKNNRNCPKGVVASLSLGGGYSSSVNSAAARLQSSGVMVAVAAGNNNADARNYSPASEPSVCTVGASDRYDRRSSFSNYGSVLDIFGPGTSILSTWIGGSTRSISGTSMATPHVAGLAAYLMTLGKTTAASACRYIADTANKGDLSNIPFGTVNLLAYNNYQA
As for B2, in data set [2], the “FB1 Hydrolase activity” value is given as “+”.
